According to patent US20100077492A1:

Molecular target: human PC4 protein (full length wild type) (human) (UniProt P53999)
Test: cell-based or functional assay

PC4 binding to a 10-nt DNA bubble substrate in an electrophoretic mobility shift assay after pre-incubation of the DNA with XPG: 44 nM
Substance: purified human XPG (without HMK tag) (from UniProt P28715 1-1186) (enzyme)
